Source: patent US20250171806A1 (BROAD INSTITUTE, published 2025)

What was measured:
Test in all cases: co-immunoprecipitation from HEK293 lysate: Flag IP of NS3, HA Western blot
[1] = molecular target: T1, HA-tagged Galleria mellonella (Gm) densovirus capsid protein VP3 (Galleria mellonella (Gm) densovirus, UniProt Q90125 324-811)
T1 construct: also called Gm VP3; GmDNV capsid VP protein 3
T1 sequence: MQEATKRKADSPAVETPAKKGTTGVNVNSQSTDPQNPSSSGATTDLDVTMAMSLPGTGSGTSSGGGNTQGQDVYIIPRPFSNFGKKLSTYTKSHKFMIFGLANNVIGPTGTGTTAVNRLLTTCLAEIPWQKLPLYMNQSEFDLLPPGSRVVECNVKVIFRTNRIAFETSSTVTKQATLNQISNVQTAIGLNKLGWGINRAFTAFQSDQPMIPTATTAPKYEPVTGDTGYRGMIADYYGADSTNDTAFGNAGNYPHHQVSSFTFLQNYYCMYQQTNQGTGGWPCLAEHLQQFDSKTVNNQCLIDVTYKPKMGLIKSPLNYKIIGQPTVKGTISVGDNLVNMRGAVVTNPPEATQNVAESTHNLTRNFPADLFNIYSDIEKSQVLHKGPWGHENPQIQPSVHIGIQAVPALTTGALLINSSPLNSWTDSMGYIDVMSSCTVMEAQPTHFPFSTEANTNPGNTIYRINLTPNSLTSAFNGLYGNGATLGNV

[2] = molecular target: T2, HA-tagged Galleria mellonella (Gm) densovirus capsid protein VP2 (Galleria mellonella (Gm) densovirus, UniProt Q90125 277-811)
T2 construct: also called Gm VP2; GmDNV capsid VP protein 2
T2 sequence: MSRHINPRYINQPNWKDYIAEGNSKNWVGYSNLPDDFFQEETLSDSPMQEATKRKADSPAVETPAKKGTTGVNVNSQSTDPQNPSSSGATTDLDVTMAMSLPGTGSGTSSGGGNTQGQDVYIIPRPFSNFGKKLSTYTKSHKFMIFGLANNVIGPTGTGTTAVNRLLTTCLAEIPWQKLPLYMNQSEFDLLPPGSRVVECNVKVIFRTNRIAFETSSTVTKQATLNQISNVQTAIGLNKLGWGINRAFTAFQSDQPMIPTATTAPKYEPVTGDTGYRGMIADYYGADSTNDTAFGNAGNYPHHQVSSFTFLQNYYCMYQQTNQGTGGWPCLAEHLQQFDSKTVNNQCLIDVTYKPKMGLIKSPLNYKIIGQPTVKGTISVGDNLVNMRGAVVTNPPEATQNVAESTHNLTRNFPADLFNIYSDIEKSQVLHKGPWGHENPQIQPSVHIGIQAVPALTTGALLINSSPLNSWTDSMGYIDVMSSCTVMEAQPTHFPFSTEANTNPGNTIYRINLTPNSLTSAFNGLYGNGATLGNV

[3] = molecular target: T3, HA-tagged Galleria mellonella (Gm) densovirus capsid protein VP4 (Galleria mellonella (Gm) densovirus, UniProt Q90125 375-811)
T3 construct: also called Gm VP4; GmDNV capsid VP protein 4
T3 sequence: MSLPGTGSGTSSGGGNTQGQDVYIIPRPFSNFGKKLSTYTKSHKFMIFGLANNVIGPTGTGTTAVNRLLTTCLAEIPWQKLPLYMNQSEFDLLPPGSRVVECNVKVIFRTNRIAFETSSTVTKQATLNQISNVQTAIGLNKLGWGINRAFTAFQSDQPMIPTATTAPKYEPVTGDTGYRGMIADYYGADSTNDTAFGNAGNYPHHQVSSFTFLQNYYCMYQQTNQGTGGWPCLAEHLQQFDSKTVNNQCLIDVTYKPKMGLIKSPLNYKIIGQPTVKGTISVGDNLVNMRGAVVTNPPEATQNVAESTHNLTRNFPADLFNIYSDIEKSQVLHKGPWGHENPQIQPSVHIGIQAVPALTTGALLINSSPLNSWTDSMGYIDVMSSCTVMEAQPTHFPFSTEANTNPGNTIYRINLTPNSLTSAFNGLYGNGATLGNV

[4] = molecular target: T4, HA-tagged Galleria mellonella (Gm) densovirus capsid protein VP1 (Galleria mellonella (Gm) densovirus, UniProt Q90125 1-811)
T4 construct: also called Gm VP1; GmDNV capsid VP protein 1
T4 sequence: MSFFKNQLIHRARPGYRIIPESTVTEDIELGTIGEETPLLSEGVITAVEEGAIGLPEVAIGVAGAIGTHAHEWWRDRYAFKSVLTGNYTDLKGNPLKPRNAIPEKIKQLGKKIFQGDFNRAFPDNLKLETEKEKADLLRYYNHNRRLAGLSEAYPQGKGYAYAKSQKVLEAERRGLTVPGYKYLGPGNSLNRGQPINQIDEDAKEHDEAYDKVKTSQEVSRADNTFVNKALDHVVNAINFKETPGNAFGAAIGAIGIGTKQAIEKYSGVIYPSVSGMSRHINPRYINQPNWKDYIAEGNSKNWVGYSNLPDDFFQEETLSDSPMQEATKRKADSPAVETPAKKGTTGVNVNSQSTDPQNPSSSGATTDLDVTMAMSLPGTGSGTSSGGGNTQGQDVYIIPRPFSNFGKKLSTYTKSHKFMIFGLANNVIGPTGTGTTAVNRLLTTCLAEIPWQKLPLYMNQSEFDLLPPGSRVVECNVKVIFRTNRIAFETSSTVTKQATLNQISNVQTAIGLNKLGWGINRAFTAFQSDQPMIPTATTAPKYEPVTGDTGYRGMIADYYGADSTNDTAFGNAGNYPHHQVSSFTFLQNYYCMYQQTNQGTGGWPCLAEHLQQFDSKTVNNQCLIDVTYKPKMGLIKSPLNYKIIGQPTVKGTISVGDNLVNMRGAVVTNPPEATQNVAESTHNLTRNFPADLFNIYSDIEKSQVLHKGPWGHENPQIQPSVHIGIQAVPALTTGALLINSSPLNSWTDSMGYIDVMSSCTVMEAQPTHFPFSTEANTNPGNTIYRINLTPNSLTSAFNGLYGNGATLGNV

Measured: binding result

B1: Flag-tagged Galleria mellonella (Gm) densovirus nonstructural protein NS3 (other)
chain: MSIAKFLYVRRLFEKVYNPKSLFYEAYKCARLNGLDMSILPKPILNMSHDMDTQIIACGEDINHTLAIEELEHWDWSKQNRLPFQLYLAVMNLTEIPEWLDETMLIECVYYFKELINHRDPYDTDELNTWNANGKPFKTMWKICKFCYNNCEDPDDYRFIYNRTVFVEDVEEIITRLQDSDSWCQLCHTCPLFNISAIYDNSPNNKQRRYSSSDDDDYMSNSFFVKHPNSRH
notes: also called Gm NS3; GmNS3; not shown: Flag tag, at either the N or the C terminus
binds: all assays above

B2: Gm NS3 with C-terminal Flag tag (other)
chain: B1 chain
notes: also called NS3 when the Flag tag was present on the C-terminus; not shown: C-terminal Flag tag
binds: all assays above
